Data on 5 molecules can be found in patent US20260001928A1 (CORTERIA PHARMACEUTICALS, priority 2022, published 2026).

In assay [1] the target is T1, CRF1R (corticotropin-releasing factor receptor 1), on the CRF1R-overexpression CHO-K1 cell line clone 2 (UniProt P34998 24-415, limits assumed).
T1 sequence (looked up): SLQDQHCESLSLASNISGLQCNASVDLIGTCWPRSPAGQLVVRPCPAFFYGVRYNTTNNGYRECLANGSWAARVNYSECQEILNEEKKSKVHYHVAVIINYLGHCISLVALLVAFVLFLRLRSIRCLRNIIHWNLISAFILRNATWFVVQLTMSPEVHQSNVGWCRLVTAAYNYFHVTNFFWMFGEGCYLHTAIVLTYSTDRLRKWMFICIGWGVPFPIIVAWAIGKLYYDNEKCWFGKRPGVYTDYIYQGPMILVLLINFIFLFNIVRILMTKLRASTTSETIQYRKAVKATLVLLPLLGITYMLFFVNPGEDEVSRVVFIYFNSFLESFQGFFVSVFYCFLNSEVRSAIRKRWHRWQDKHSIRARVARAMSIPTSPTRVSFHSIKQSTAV
The experiment in a line: cell-based or functional assay.

The target of assay [2] is Rat CRF2 a (corticotropin-releasing factor receptor 2), on the A7R5 rat aortic smooth muscle cell line (rat, UniProt P47866 20-411). The experiment in a line: cell-based or functional assay.
Chain of Rat CRF2 a (corticotropin-releasing factor receptor 2), on the A7R5 rat aortic smooth muscle cell line (P47866 20-411): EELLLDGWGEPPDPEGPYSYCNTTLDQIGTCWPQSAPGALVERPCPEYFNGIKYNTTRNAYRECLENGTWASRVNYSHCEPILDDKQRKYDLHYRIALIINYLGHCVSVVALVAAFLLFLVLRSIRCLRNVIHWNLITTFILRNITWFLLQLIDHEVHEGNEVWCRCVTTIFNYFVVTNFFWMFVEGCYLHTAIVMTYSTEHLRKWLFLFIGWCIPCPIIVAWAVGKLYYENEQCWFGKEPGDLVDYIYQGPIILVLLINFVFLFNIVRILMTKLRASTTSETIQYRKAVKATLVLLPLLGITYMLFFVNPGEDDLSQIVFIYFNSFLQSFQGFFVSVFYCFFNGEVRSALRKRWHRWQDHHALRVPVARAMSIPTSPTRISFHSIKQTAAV

*1 amine or outer side, *2 acyl side, *3 side chain or, on linkers, in order; H or OH if unused. Where no end group is shown, it is not given here. Side-chain parts run from the residue outwards. [ ]: non-standard residue; d: D form. The star is where a group is joined. C20 diacid = O=C(O)CCCCCCCCCCCCCCCCCCC(=O)*; γGlu = O=C(O)[C@H](CCC(=O)[*:2])N[*:1]; NMeI = CC[C@H](C)[C@H](NC)C(=O)O; AEEA = NCCOCCOCC(=O)O; Aib = CC(C)(N)C(=O)O Some results are limits rather than exact numbers.

B1: peptide of SEQ ID NO: 237 (peptide)
peptide: [NMeI]VLSLD[dV]PIKLK([AEEA-AEEA-γGlu-C20 diacid])KILLEQEKQKEQREQAETN[Aib]QILAQV-NH2
modifications: N-terminus assumed
SMILES: CC[C@H](C)[C@H](NC)C(=O)N[C@H](C(=O)N[C@@H](CC(C)C)C(=O)N[C@@H](CO)C(=O)N[C@@H](CC(C)C)C(=O)N[C@@H](CC(=O)O)C(=O)N[C@@H](C(=O)N1CCC[C@H]1C(=O)N[C@H](C(=O)N[C@@H](CCCCN)C(=O)N[C@@H](CC(C)C)C(=O)N[C@@H](CCCCNC(=O)COCCOCCNC(=O)COCCOCCNC(=O)CC[C@H](NC(=O)CCCCCCCCCCCCCCCCCCC(=O)O)C(=O)O)C(=O)N[C@@H](CCCCN)C(=O)N[C@H](C(=O)N[C@@H](CC(C)C)C(=O)N[C@@H](CC(C)C)C(=O)N[C@@H](CCC(=O)O)C(=O)N[C@@H](CCC(N)=O)C(=O)N[C@@H](CCC(=O)O)C(=O)N[C@@H](CCCCN)C(=O)N[C@@H](CCC(N)=O)C(=O)N[C@@H](CCCCN)C(=O)N[C@@H](CCC(=O)O)C(=O)N[C@@H](CCC(N)=O)C(=O)N[C@@H](CCCNC(=N)N)C(=O)N[C@@H](CCC(=O)O)C(=O)N[C@@H](CCC(N)=O)C(=O)N[C@@H](C)C(=O)N[C@@H](CCC(=O)O)C(=O)N[C@H](C(=O)N[C@@H](CC(N)=O)C(=O)NC(C)(C)C(=O)N[C@@H](CCC(N)=O)C(=O)N[C@H](C(=O)N[C@@H](CC(C)C)C(=O)N[C@@H](C)C(=O)N[C@@H](CCC(N)=O)C(=O)N[C@H](C(N)=O)C(C)C)[C@@H](C)CC)[C@@H](C)O)[C@@H](C)CC)[C@@H](C)CC)C(C)C)C(C)C
For the molecule B1, in assay [1], the “EC50 [nM] (cAMP, CRF1R-overexpression CHO-K1 cells)” value was > 250 nM and the “Emax (% I) (cAMP, 100% = Sauvagine at 100 nM)” value (shortened to “Emax (% I)”) amounted to 6 % I. In addition, in assay [2], the “EC50 [nM] 0% HSA (cAMP, A7R5 rat aortic smooth muscle cells)” value (from here on “EC50 [nM] 0% HSA”) amounted to 0.63 nM.

B2: peptide of SEQ ID NO: 236 (peptide)
peptide: Ac-IVLSLD[dV]PIKLK([AEEA-AEEA-γGlu-C20 diacid])KILLEQEKQKEQREQAETN[Aib]QILAQV-NH2
SMILES: CC[C@H](C)[C@H](NC(C)=O)C(=O)N[C@H](C(=O)N[C@@H](CC(C)C)C(=O)N[C@@H](CO)C(=O)N[C@@H](CC(C)C)C(=O)N[C@@H](CC(=O)O)C(=O)N[C@@H](C(=O)N1CCC[C@H]1C(=O)N[C@H](C(=O)N[C@@H](CCCCN)C(=O)N[C@@H](CC(C)C)C(=O)N[C@@H](CCCCNC(=O)COCCOCCNC(=O)COCCOCCNC(=O)CC[C@H](NC(=O)CCCCCCCCCCCCCCCCCCC(=O)O)C(=O)O)C(=O)N[C@@H](CCCCN)C(=O)N[C@H](C(=O)N[C@@H](CC(C)C)C(=O)N[C@@H](CC(C)C)C(=O)N[C@@H](CCC(=O)O)C(=O)N[C@@H](CCC(N)=O)C(=O)N[C@@H](CCC(=O)O)C(=O)N[C@@H](CCCCN)C(=O)N[C@@H](CCC(N)=O)C(=O)N[C@@H](CCCCN)C(=O)N[C@@H](CCC(=O)O)C(=O)N[C@@H](CCC(N)=O)C(=O)N[C@@H](CCCNC(=N)N)C(=O)N[C@@H](CCC(=O)O)C(=O)N[C@@H](CCC(N)=O)C(=O)N[C@@H](C)C(=O)N[C@@H](CCC(=O)O)C(=O)N[C@H](C(=O)N[C@@H](CC(N)=O)C(=O)NC(C)(C)C(=O)N[C@@H](CCC(N)=O)C(=O)N[C@H](C(=O)N[C@@H](CC(C)C)C(=O)N[C@@H](C)C(=O)N[C@@H](CCC(N)=O)C(=O)N[C@H](C(N)=O)C(C)C)[C@@H](C)CC)[C@@H](C)O)[C@@H](C)CC)[C@@H](C)CC)C(C)C)C(C)C
Regarding B2, in assay [1], the “EC50 [nM] (cAMP, CRF1R-overexpression CHO-K1 cells)” value was > 250 nM and the “Emax (% I)” value was determined as 7 % I. Besides, the “EC50 [nM] 0% HSA” value in assay [2] amounted to 2.81 nM.

B3: peptide of SEQ ID NO: 241 (peptide)
peptide: Ac-IVLSLD[dV]PIKLK([γGlu-γGlu-C20 diacid])KILLEQEKQKEQREQAETN[Aib]QILAQV-NH2
SMILES: CC[C@H](C)[C@H](NC(C)=O)C(=O)N[C@H](C(=O)N[C@@H](CC(C)C)C(=O)N[C@@H](CO)C(=O)N[C@@H](CC(C)C)C(=O)N[C@@H](CC(=O)O)C(=O)N[C@@H](C(=O)N1CCC[C@H]1C(=O)N[C@H](C(=O)N[C@@H](CCCCN)C(=O)N[C@@H](CC(C)C)C(=O)N[C@@H](CCCCNC(=O)CC[C@H](NC(=O)CC[C@H](NC(=O)CCCCCCCCCCCCCCCCCCC(=O)O)C(=O)O)C(=O)O)C(=O)N[C@@H](CCCCN)C(=O)N[C@H](C(=O)N[C@@H](CC(C)C)C(=O)N[C@@H](CC(C)C)C(=O)N[C@@H](CCC(=O)O)C(=O)N[C@@H](CCC(N)=O)C(=O)N[C@@H](CCC(=O)O)C(=O)N[C@@H](CCCCN)C(=O)N[C@@H](CCC(N)=O)C(=O)N[C@@H](CCCCN)C(=O)N[C@@H](CCC(=O)O)C(=O)N[C@@H](CCC(N)=O)C(=O)N[C@@H](CCCNC(=N)N)C(=O)N[C@@H](CCC(=O)O)C(=O)N[C@@H](CCC(N)=O)C(=O)N[C@@H](C)C(=O)N[C@@H](CCC(=O)O)C(=O)N[C@H](C(=O)N[C@@H](CC(N)=O)C(=O)NC(C)(C)C(=O)N[C@@H](CCC(N)=O)C(=O)N[C@H](C(=O)N[C@@H](CC(C)C)C(=O)N[C@@H](C)C(=O)N[C@@H](CCC(N)=O)C(=O)N[C@H](C(N)=O)C(C)C)[C@@H](C)CC)[C@@H](C)O)[C@@H](C)CC)[C@@H](C)CC)C(C)C)C(C)C
As to B3, in assay [1], the “EC50 [nM] (cAMP, CRF1R-overexpression CHO-K1 cells)” value was > 250 nM and the “Emax (% I)” value is 7 % I. In addition, the “EC50 [nM] 0% HSA” value in assay [2] amounted to 3.52 nM.

B4: peptide of SEQ ID NO: 240 (peptide)
peptide: Ac-IVLSLD[dV]PIKLK([AEEA-AEEA-γGlu-C20 diacid])KILLEQEKQKAQREQAETN[Aib]QILAQV-NH2
SMILES: CC[C@H](C)[C@H](NC(C)=O)C(=O)N[C@H](C(=O)N[C@@H](CC(C)C)C(=O)N[C@@H](CO)C(=O)N[C@@H](CC(C)C)C(=O)N[C@@H](CC(=O)O)C(=O)N[C@@H](C(=O)N1CCC[C@H]1C(=O)N[C@H](C(=O)N[C@@H](CCCCN)C(=O)N[C@@H](CC(C)C)C(=O)N[C@@H](CCCCNC(=O)COCCOCCNC(=O)COCCOCCNC(=O)CC[C@H](NC(=O)CCCCCCCCCCCCCCCCCCC(=O)O)C(=O)O)C(=O)N[C@@H](CCCCN)C(=O)N[C@H](C(=O)N[C@@H](CC(C)C)C(=O)N[C@@H](CC(C)C)C(=O)N[C@@H](CCC(=O)O)C(=O)N[C@@H](CCC(N)=O)C(=O)N[C@@H](CCC(=O)O)C(=O)N[C@@H](CCCCN)C(=O)N[C@@H](CCC(N)=O)C(=O)N[C@@H](CCCCN)C(=O)N[C@@H](C)C(=O)N[C@@H](CCC(N)=O)C(=O)N[C@@H](CCCNC(=N)N)C(=O)N[C@@H](CCC(=O)O)C(=O)N[C@@H](CCC(N)=O)C(=O)N[C@@H](C)C(=O)N[C@@H](CCC(=O)O)C(=O)N[C@H](C(=O)N[C@@H](CC(N)=O)C(=O)NC(C)(C)C(=O)N[C@@H](CCC(N)=O)C(=O)N[C@H](C(=O)N[C@@H](CC(C)C)C(=O)N[C@@H](C)C(=O)N[C@@H](CCC(N)=O)C(=O)N[C@H](C(N)=O)C(C)C)[C@@H](C)CC)[C@@H](C)O)[C@@H](C)CC)[C@@H](C)CC)C(C)C)C(C)C
With B4, in assay [1], the “EC50 [nM] (cAMP, CRF1R-overexpression CHO-K1 cells)” value was > 250 nM and the “Emax (% I)” value came out at 4 % I. In addition, in assay [2], the “EC50 [nM] 0% HSA” value was 2.3 nM.

B5: peptide of SEQ ID NO: 238 (peptide)
peptide: Ac-IVLSLD[dV]PIKLK([AEEA-AEEA-γGlu-C20 diacid])KILLEQEKQKKQREQAETN[Aib]QILAQV-NH2
SMILES: CC[C@H](C)[C@H](NC(C)=O)C(=O)N[C@H](C(=O)N[C@@H](CC(C)C)C(=O)N[C@@H](CO)C(=O)N[C@@H](CC(C)C)C(=O)N[C@@H](CC(=O)O)C(=O)N[C@@H](C(=O)N1CCC[C@H]1C(=O)N[C@H](C(=O)N[C@@H](CCCCN)C(=O)N[C@@H](CC(C)C)C(=O)N[C@@H](CCCCNC(=O)COCCOCCNC(=O)COCCOCCNC(=O)CC[C@H](NC(=O)CCCCCCCCCCCCCCCCCCC(=O)O)C(=O)O)C(=O)N[C@@H](CCCCN)C(=O)N[C@H](C(=O)N[C@@H](CC(C)C)C(=O)N[C@@H](CC(C)C)C(=O)N[C@@H](CCC(=O)O)C(=O)N[C@@H](CCC(N)=O)C(=O)N[C@@H](CCC(=O)O)C(=O)N[C@@H](CCCCN)C(=O)N[C@@H](CCC(N)=O)C(=O)N[C@@H](CCCCN)C(=O)N[C@@H](CCCCN)C(=O)N[C@@H](CCC(N)=O)C(=O)N[C@@H](CCCNC(=N)N)C(=O)N[C@@H](CCC(=O)O)C(=O)N[C@@H](CCC(N)=O)C(=O)N[C@@H](C)C(=O)N[C@@H](CCC(=O)O)C(=O)N[C@H](C(=O)N[C@@H](CC(N)=O)C(=O)NC(C)(C)C(=O)N[C@@H](CCC(N)=O)C(=O)N[C@H](C(=O)N[C@@H](CC(C)C)C(=O)N[C@@H](C)C(=O)N[C@@H](CCC(N)=O)C(=O)N[C@H](C(N)=O)C(C)C)[C@@H](C)CC)[C@@H](C)O)[C@@H](C)CC)[C@@H](C)CC)C(C)C)C(C)C
B5: in assay [1], the “EC50 [nM] (cAMP, CRF1R-overexpression CHO-K1 cells)” value is > 250 nM and the “Emax (% I)” value is 12 % I. Besides, the “EC50 [nM] 0% HSA” value in assay [2] is 0.09 nM.
